Target: T1, purified recombinant mouse PKCζ (mouse, UniProt Q02956 1-592)
T1 sequence (looked up): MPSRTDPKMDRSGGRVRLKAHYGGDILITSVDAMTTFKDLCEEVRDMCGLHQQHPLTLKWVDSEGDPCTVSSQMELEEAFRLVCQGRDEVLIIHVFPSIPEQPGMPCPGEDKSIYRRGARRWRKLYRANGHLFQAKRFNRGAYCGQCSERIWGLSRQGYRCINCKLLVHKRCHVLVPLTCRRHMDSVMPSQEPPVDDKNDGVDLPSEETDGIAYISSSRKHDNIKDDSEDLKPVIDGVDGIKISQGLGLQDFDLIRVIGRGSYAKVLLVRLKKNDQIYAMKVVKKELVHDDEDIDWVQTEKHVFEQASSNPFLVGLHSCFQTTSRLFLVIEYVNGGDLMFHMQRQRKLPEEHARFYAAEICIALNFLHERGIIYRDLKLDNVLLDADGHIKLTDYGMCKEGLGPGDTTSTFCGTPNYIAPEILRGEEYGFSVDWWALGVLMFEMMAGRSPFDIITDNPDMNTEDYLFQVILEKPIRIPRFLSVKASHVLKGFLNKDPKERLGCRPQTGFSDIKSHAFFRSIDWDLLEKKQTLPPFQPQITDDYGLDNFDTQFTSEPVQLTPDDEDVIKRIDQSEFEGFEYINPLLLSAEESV
Experiment: far-Western, overlay or dot blot

B1: GST-ASIP 712/936 (domain or fragment, rat, UniProt Q9Z340 712-936, looked up)
chain: RRISHSLYSGIEGLDESPTRNAALSRIMGESGKCQLSPTVNMPHDDTVMIEDDRLPVLPPHLSDQSSSSSHDDVGFIMTEAGTWAKATISDSADCSLSPDVDPVLAFQREGFGRQSMSEKRTKQFSNASQLDFVKTRKSKSMDLGIADETKLNTVDDQRAGSPNRDVGPSLGLKKSSSLESLQTAVAEVTLNGNIPFHRPRPRIIRGRGCNESFRAAIDKSYDKP
B1: binds.
